Test system: Escherichia coli TOP10
Experiment: shrunken log2 fold change of peptide-encoding DNA abundance (4.5 h post-induction vs induction); higher = less antimicrobial activity (less host growth inhibition)
Conditions: time post-induction: 4.5 h; library: site-saturation at positions 5, 18, 19, 20
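Note: peptides expressed intracellularly from a pBAD plasmid library in pooled LB shake-flask culture, induced with 0.3% L-arabinose, DNA abundance read by NGS, three biological replicates, DESeq2 with apeglm shrinkage.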

| Sequence | shrunken log2 fold change |
| --- | --- |
| RRIRWRPPRLPRPRPRPVGCPRP | 0.575 |
| RRIRQRPPRLPRPRPRPYRYPRP | -0.0123 |
| RRIRQRPPRLPRPRPRPCFKPRP | -0.407 |
| RRIRIRPPRLPRPRPRPSMHPRP | -0.511 |
| RRIRTRPPRLPRPRPRPTLLPRP | 0.0818 |
| RRIRRRPPRLPRPRPRPPHTPRP | 0.879 |
| RRIRGRPPRLPRPRPRPRHFPRP | 0.379 |
| RRIRARPPRLPRPRPRPLLLPRP | 0.313 |
| RRIRDRPPRLPRPRPRPLLWPRP | 0.754 |
| RRIRRRPPRLPRPRPRPIIPPRP | -0.36 |
| RRIRIRPPRLPRPRPRPFYVPRP | -1.11 |
| RRIRSRPPRLPRPRPRPEHVPRP | -0.191 |
| RRIRERPPRLPRPRPRPKTPPRP | 0.0131 |
| RRIRLRPPRLPRPRPRPEARPRP | 0.142 |
| RRIRIRPPRLPRPRPRPRYTPRP | -0.156 |
| RRIRSRPPRLPRPRPRPNCTPRP | -0.531 |
| RRIRSRPPRLPRPRPRPNFKPRP | -0.0661 |
| RRIRPRPPRLPRPRPRPKGCPRP | 0.394 |
| RRIRNRPPRLPRPRPRPRYAPRP | -0.0268 |
| RRIRSRPPRLPRPRPRPQEWPRP | 0.0425 |
| RRIRYRPPRLPRPRPRPTNWPRP | -0.185 |
| RRIRMRPPRLPRPRPRPGMDPRP | 0.32 |
| RRIRMRPPRLPRPRPRPMVCPRP | 0.204 |
| RRIRYRPPRLPRPRPRPYQWPRP | -0.257 |
| RRIRIRPPRLPRPRPRPVHQPRP | -0.398 |

| Sequence | shrunken log2 fold change |
| --- | --- |
| RRIRPRPPRLPRPRPRPSTMPRP | -0.297 |
| RRIRTRPPRLPRPRPRPMMFPRP | -0.0404 |
| RRIRWRPPRLPRPRPRPPLCPRP | 0.668 |
| RRIRSRPPRLPRPRPRPEMNPRP | 0.0588 |
| RRIRWRPPRLPRPRPRPERDPRP | 0.128 |
| RRIRLRPPRLPRPRPRPSFGPRP | 0.197 |
| RRIRQRPPRLPRPRPRPDGTPRP | 0.103 |
| RRIRFRPPRLPRPRPRPCWRPRP | -0.199 |
| RRIRLRPPRLPRPRPRPGQQPRP | -0.0555 |
| RRIRNRPPRLPRPRPRPKDQPRP | -0.108 |
| RRIRQRPPRLPRPRPRPIDEPRP | 3.38 |
| RRIRMRPPRLPRPRPRPSEIPRP | -0.00151 |
| RRIRRRPPRLPRPRPRPIANPRP | -0.195 |
| RRIRTRPPRLPRPRPRPSGKPRP | -0.0608 |
| RRIRHRPPRLPRPRPRPEIQPRP | -0.102 |
| RRIRDRPPRLPRPRPRPIFDPRP | 0.0515 |
| RRIRRRPPRLPRPRPRPTTQPRP | 0.356 |
| RRIRVRPPRLPRPRPRPDFEPRP | 0.0704 |
| RRIRKRPPRLPRPRPRPLWRPRP | 0.609 |
| RRIRIRPPRLPRPRPRPNNTPRP | -1.09 |
| RRIRRRPPRLPRPRPRPRAQPRP | 0.5 |
| RRIRVRPPRLPRPRPRPVIMPRP | -0.227 |
| RRIRWRPPRLPRPRPRPVHIPRP | -0.091 |
| RRIRSRPPRLPRPRPRPNLFPRP | -0.0477 |
| RRIRFRPPRLPRPRPRPANTPRP | -0.209 |

| Sequence | shrunken log2 fold change |
| --- | --- |
| RRIRVRPPRLPRPRPRPAWTPRP | -0.0585 |
| RRIRIRPPRLPRPRPRPAMEPRP | 0.0199 |
| RRIRHRPPRLPRPRPRPWFWPRP | 0.0142 |
| RRIRDRPPRLPRPRPRPTNFPRP | -0.208 |
| RRIRQRPPRLPRPRPRPTKDPRP | -0.198 |
| RRIRFRPPRLPRPRPRPRQVPRP | -0.331 |
| RRIRNRPPRLPRPRPRPAVLPRP | 0.00424 |
| RRIRWRPPRLPRPRPRPFEDPRP | 0.104 |
| RRIRLRPPRLPRPRPRPKNLPRP | 0.0548 |
| RRIRNRPPRLPRPRPRPHEGPRP | -0.015 |
| RRIRSRPPRLPRPRPRPYDGPRP | -0.203 |
| RRIRDRPPRLPRPRPRPYTVPRP | -0.00865 |
| RRIRNRPPRLPRPRPRPVIEPRP | -0.0754 |
| RRIRGRPPRLPRPRPRPEPEPRP | 1.51 |
| RRIRVRPPRLPRPRPRPNLVPRP | -0.2 |
| RRIRTRPPRLPRPRPRPNMQPRP | -0.223 |
| RRIRQRPPRLPRPRPRPHQCPRP | -0.401 |
| RRIRARPPRLPRPRPRPAMWPRP | 0.317 |
| RRIRGRPPRLPRPRPRPCCYPRP | 0.786 |
| RRIRYRPPRLPRPRPRPQQRPRP | -0.261 |
| RRIRNRPPRLPRPRPRPLYLPRP | -0.54 |
| RRIRGRPPRLPRPRPRPARMPRP | 0.613 |
| RRIRTRPPRLPRPRPRPHVLPRP | -0.193 |
| RRIRYRPPRLPRPRPRPGWMPRP | -0.000507 |
| RRIRCRPPRLPRPRPRPFQYPRP | -1.21 |

| Sequence | shrunken log2 fold change |
| --- | --- |
| RRIRERPPRLPRPRPRPKLFPRP | -0.0593 |
| RRIRIRPPRLPRPRPRPAFKPRP | -0.317 |
| RRIRDRPPRLPRPRPRPAAKPRP | 0.359 |
| RRIRQRPPRLPRPRPRPEMVPRP | -0.0549 |
| RRIRRRPPRLPRPRPRPRKIPRP | 0.405 |
| RRIRMRPPRLPRPRPRPHCKPRP | 0.00214 |
| RRIRCRPPRLPRPRPRPKWAPRP | 0.0877 |
| RRIRHRPPRLPRPRPRPPTEPRP | 0.159 |
| RRIRERPPRLPRPRPRPKSVPRP | -0.00947 |
| RRIRTRPPRLPRPRPRPYKRPRP | -0.29 |
| RRIRVRPPRLPRPRPRPFKPPRP | -0.132 |
| RRIRWRPPRLPRPRPRPCQMPRP | -0.0107 |
| RRIRNRPPRLPRPRPRPEQSPRP | 0.338 |
| RRIRYRPPRLPRPRPRPEFQPRP | -0.47 |
| RRIRERPPRLPRPRPRPYGAPRP | -0.569 |
| RRIRMRPPRLPRPRPRPGAVPRP | 0.873 |
| RRIRKRPPRLPRPRPRPGFNPRP | 0.0583 |
| RRIRMRPPRLPRPRPRPCRAPRP | 0.496 |
| RRIRPRPPRLPRPRPRPKKNPRP | 0.0249 |
| RRIRMRPPRLPRPRPRPIIIPRP | -0.166 |
| RRIRGRPPRLPRPRPRPVCDPRP | 0.959 |
| RRIRDRPPRLPRPRPRPHIVPRP | -0.146 |
| RRIRNRPPRLPRPRPRPTIVPRP | -0.0363 |
| RRIRERPPRLPRPRPRPEWGPRP | 0.23 |
| RRIRRRPPRLPRPRPRPTQKPRP | 0.788 |

| Sequence | shrunken log2 fold change |
| --- | --- |
| RRIRGRPPRLPRPRPRPCKAPRP | 0.377 |
| RRIRHRPPRLPRPRPRPYFCPRP | -0.444 |
| RRIRKRPPRLPRPRPRPCWGPRP | 0.0634 |
| RRIRIRPPRLPRPRPRPGHTPRP | -0.165 |
| RRIRWRPPRLPRPRPRPGSFPRP | 0.0155 |
| RRIRERPPRLPRPRPRPNQRPRP | -0.0506 |
| RRIRSRPPRLPRPRPRPYTHPRP | -1.3 |
| RRIRKRPPRLPRPRPRPCGRPRP | 0.0548 |
| RRIRARPPRLPRPRPRPGARPRP | 0.59 |
| RRIRLRPPRLPRPRPRPVKCPRP | -0.122 |
| RRIRFRPPRLPRPRPRPFIVPRP | -0.772 |
| RRIRGRPPRLPRPRPRPGGNPRP | 0.0695 |
| RRIRWRPPRLPRPRPRPSGMPRP | 0.104 |
| RRIRERPPRLPRPRPRPPMIPRP | -0.0526 |
| RRIRYRPPRLPRPRPRPTMQPRP | -0.0804 |
| RRIRNRPPRLPRPRPRPVRAPRP | 0.545 |
| RRIRGRPPRLPRPRPRPEREPRP | 1.1 |
| RRIRVRPPRLPRPRPRPAIIPRP | -0.425 |
| RRIRHRPPRLPRPRPRPIQSPRP | -0.0918 |
| RRIRDRPPRLPRPRPRPAHGPRP | -0.0897 |
| RRIRCRPPRLPRPRPRPSWVPRP | -0.273 |
| RRIRMRPPRLPRPRPRPQGIPRP | -0.154 |
| RRIRFRPPRLPRPRPRPILNPRP | -0.692 |
| RRIRWRPPRLPRPRPRPDKRPRP | -0.00125 |
| RRIRQRPPRLPRPRPRPDAMPRP | 0.0556 |

| Sequence | shrunken log2 fold change |
| --- | --- |
| RRIRSRPPRLPRPRPRPRKPPRP | 0.0197 |
| RRIRVRPPRLPRPRPRPKQMPRP | 0.114 |
| RRIRMRPPRLPRPRPRPEEQPRP | -0.00184 |
| RRIRQRPPRLPRPRPRPIQCPRP | 0.0238 |
| RRIRKRPPRLPRPRPRPINNPRP | -0.298 |
| RRIRRRPPRLPRPRPRPIHAPRP | -0.102 |
| RRIRRRPPRLPRPRPRPNHPPRP | -0.0297 |
| RRIRTRPPRLPRPRPRPIMNPRP | 0.0436 |
| RRIRYRPPRLPRPRPRPLGGPRP | -0.0546 |
| RRIRKRPPRLPRPRPRPRNNPRP | 0.198 |
| RRIRHRPPRLPRPRPRPKLEPRP | -0.0604 |
| RRIRERPPRLPRPRPRPFMIPRP | -0.768 |
| RRIRMRPPRLPRPRPRPTHEPRP | 0.439 |
| RRIRSRPPRLPRPRPRPNAKPRP | 0.00752 |
| RRIRDRPPRLPRPRPRPLITPRP | 0.189 |
| RRIRPRPPRLPRPRPRPGFEPRP | 0.225 |
| RRIRPRPPRLPRPRPRPVNRPRP | -0.0842 |
| RRIRQRPPRLPRPRPRPRVPPRP | 0.339 |
| RRIRFRPPRLPRPRPRPVTWPRP | -0.271 |
| RRIRPRPPRLPRPRPRPNYSPRP | -0.39 |
| RRIRQRPPRLPRPRPRPPTFPRP | 0.0128 |
| RRIRARPPRLPRPRPRPQVEPRP | 0.399 |
| RRIRIRPPRLPRPRPRPRNWPRP | 0.18 |
| RRIRWRPPRLPRPRPRPTRFPRP | 0.286 |
| RRIRMRPPRLPRPRPRPYEGPRP | -0.13 |

— the supplement of paper PMC9112550, “Optimization of the antimicrobial peptide Bac7 by deep mutational scanning” (BMC Biology, 2022)
